This note sets out measurements from paper PMC9181159, “High Nitric Oxide Concentration Inhibits Photosynthetic Pigment Biosynthesis by Promoting the Degradation of Transcription Factor HY5 in Tomato”.

In this series the target is T1, HY5 (LONG HYPOCOTYL 5) (Solanum lycopersicum, UniProt Q9SM50 1-158).
T1 sequence: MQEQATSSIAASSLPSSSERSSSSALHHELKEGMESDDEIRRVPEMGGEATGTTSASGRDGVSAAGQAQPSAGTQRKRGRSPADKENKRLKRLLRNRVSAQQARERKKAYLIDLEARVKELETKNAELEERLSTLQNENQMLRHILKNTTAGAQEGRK
The experiment in a line: EMSA; no GSNO; LightShift Chemiluminescent EMSA Kit, 20 min at room temperature, 6% native polyacrylamide gel; buffer, salt and pH not stated. The note with it: protein: recombinant; tags: His (pET-32a fusion); chain copies: 2; label: biotin 3' end; blunt.

B1: PSY2-wt probe (dsDNA)
DNA 1: CTGTGATTTACACGTGTCCTCTTTAT
DNA 2: ATAAAGAGGACACGTGTAAATCACAG
With B1, the binding result is “binds”.

B2: PORC-wt probe (dsDNA)
DNA 1: CAAAATGCAACACGTGATGTATGAAT
DNA 2: ATTCATACATCACGTGTTGCATTTTG
With B2, the binding result is reported as “binds”.
